Assay results taken from patent publication US20140286957A1 (Teva, published 2014).
Where a chain is given by its changes, count along the chain named. Several values for one entry are separate records, joined by “and”; a condition that tells them apart may be missing. Equal entries are not always repeated. Where two headings read alike, the source gives them in different places. One block for each molecule: values may come before it.

Assays:
Human CD1d on cells [1] = molecular target: T1, Human CD1d on cells (human, UniProt P15813 20-335); assay: cell-based or functional assay
T1 sequence (looked up): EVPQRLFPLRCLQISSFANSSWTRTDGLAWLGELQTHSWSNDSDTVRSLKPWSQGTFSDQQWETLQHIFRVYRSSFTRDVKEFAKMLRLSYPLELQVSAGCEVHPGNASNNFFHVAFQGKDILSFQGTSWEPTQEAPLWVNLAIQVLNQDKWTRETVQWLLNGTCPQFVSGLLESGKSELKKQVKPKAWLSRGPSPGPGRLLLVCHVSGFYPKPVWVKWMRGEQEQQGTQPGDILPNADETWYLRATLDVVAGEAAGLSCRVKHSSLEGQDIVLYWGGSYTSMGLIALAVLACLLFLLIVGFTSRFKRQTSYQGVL

[2] = molecular target: T2, CD1d tetramer loaded with α-GalCer (ProImmune) (UniProt P15813 20-301, limits assumed); assay: flow cytometry, inhibition of CD1d tetramer (10 nM) binding to NKTCR on J.RT3-T3.5 cells
T2 construct: Bought reagent; also called fluorochrome-conjugated CD1d tetramer
T2 sequence (looked up): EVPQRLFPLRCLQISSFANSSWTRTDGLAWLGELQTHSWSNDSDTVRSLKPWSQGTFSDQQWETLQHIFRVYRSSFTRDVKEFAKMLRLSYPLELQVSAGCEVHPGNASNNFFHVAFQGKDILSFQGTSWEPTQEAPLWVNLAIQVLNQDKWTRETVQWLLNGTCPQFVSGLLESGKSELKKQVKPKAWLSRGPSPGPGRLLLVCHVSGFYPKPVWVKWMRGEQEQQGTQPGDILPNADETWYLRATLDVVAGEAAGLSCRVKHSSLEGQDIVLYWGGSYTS

Human CD1d on cells [3] = molecular target: T1, Human CD1d on cells; assay: cell-based or functional assay; remark: listed apart in the source
Human CD1d on cells [4] = molecular target: T1, Human CD1d on cells; assay: cell-based or functional assay; remark: listed apart in the source
Human CD1d on cells [5] = molecular target: T1, Human CD1d on cells; assay: cell-based or functional assay; remark: listed apart in the source
Human CD1d on cells [6] = molecular target: T1, Human CD1d on cells; assay: cell-based or functional assay; remark: listed apart in the source
Human CD1d on cells [7] = molecular target: T1, Human CD1d on cells; assay: cell-based or functional assay; remark: listed apart in the source
Human CD1d on cells [8] = molecular target: T1, Human CD1d on cells; assay: cell-based or functional assay; remark: listed apart in the source
Human CD1d on cells [9] = molecular target: T1, Human CD1d on cells; assay: cell-based or functional assay; remark: listed apart in the source
Human CD1d on cells [10] = molecular target: T1, Human CD1d on cells; assay: cell-based or functional assay; remark: listed apart in the source
Human CD1d on cells [11] = molecular target: T1, Human CD1d on cells; assay: cell-based or functional assay; remark: listed apart in the source
Human CD1d on cells [12] = molecular target: T1, Human CD1d on cells; assay: cell-based or functional assay; remark: listed apart in the source
Human CD1d on cells [13] = molecular target: T1, Human CD1d on cells; assay: cell-based or functional assay; remark: listed apart in the source
Human CD1d on cells [14] = molecular target: T1, Human CD1d on cells; assay: cell-based or functional assay; remark: listed apart in the source
Human CD1d on cells [15] = molecular target: T1, Human CD1d on cells; assay: cell-based or functional assay; remark: listed apart in the source
Human CD1d/β2M = molecular target: T3, Human CD1d/β2M (human, UniProt P15813 20-301; P61769 21-119); assay: direct ELISA, plate coated with 1 µg/mL human CD1d, HRP anti-human kappa detection
T3 construct: also called hCD1d; recombinant human CD1d

NKT IFN-γ EC50 (moDC) (Human CD1d on cells [1]): 0.116 µg/mL | NKT IL-13 EC50 (moDC) (Human CD1d on cells [1]): 0.0175 µg/mL | EC50 [2]: 1.44 µg/mL | IFN-γ EC50 (C24:1 βGluCer, moDC) (Human CD1d on cells [3]): 0.139 µg/mL | IFN-γ EC50 (THP-1) (Human CD1d on cells [3]): 0.429 µg/mL | IFN-γ EC50 (primary CD14+ cells) (Human CD1d on cells [3]): 1.39 µg/mL | IL-2 release EC50 (U-937 + NKTCR cell line) (Human CD1d on cells [3]): 0.111 µg/mL | IL-4 EC50 (C24:1 βGluCer, moDC) (Human CD1d on cells [3]): 0.133 µg/mL | IL-4 EC50 (THP-1) (Human CD1d on cells [3]): 0.0761 µg/mL | IL-4 EC50 (primary CD14+ cells) (Human CD1d on cells [3]): 0.186 µg/mL | IL-5 EC50 (C24:1 βGluCer, moDC) (Human CD1d on cells [3]): 0.0819 µg/mL | IL-5 EC50 (THP-1) (Human CD1d on cells [3]): 0.0647 µg/mL | IL-5 EC50 (primary CD14+ cells) (Human CD1d on cells [3]): 0.108 µg/mL | IL-13 EC50 (C24:1 βGluCer, moDC) (Human CD1d on cells [3]): 0.0523 µg/mL | IL-13 EC50 (THP-1) (Human CD1d on cells [3]): 0.154 µg/mL | IL-13 EC50 (primary CD14+ cells) (Human CD1d on cells [3]): 0.844 µg/mL | NKT IFN-γ EC50 (moDC) (Human CD1d on cells [3]): > 1 µg/mL | NKT IL-4 EC50 (moDC) (Human CD1d on cells [3]): 0.137 µg/mL | NKT IL-5 EC50 (moDC) (Human CD1d on cells [3]): 0.287 µg/mL | TNF-α EC50 (C24:1 βGluCer, moDC) (Human CD1d on cells [3]): 0.00569 µg/mL
Molecule: anti-CD1d antibody 42 (BD Biosciences)

IFN-γ EC50 (C24:1 βGluCer, moDC) (Human CD1d on cells [4]): 0.00238 µg/mL | IL-4 EC50 (C24:1 βGluCer, moDC) (Human CD1d on cells [4]): 0.00145 µg/mL | IL-5 EC50 (C24:1 βGluCer, moDC) (Human CD1d on cells [4]): 0.00123 µg/mL | IL-13 EC50 (C24:1 βGluCer, moDC) (Human CD1d on cells [4]): 0.00555 µg/mL | TNF-α EC50 (C24:1 βGluCer, moDC) (Human CD1d on cells [4]): 0.00179 µg/mL | NKT IFN-γ EC50 (THP-1) (Human CD1d on cells [5]): 0.0552 µg/mL | NKT IL-4 EC50 (THP-1) (Human CD1d on cells [5]): 0.00298 µg/mL | NKT IL-5 EC50 (THP-1) (Human CD1d on cells [5]): 0.00696 µg/mL | NKT IL-13 EC50 (THP-1) (Human CD1d on cells [5]): 0.0272 µg/mL | NKT TNF EC50 (THP-1) (Human CD1d on cells [5]): 0.00918 µg/mL | IFN-γ EC50 (primary CD14+ cells) (Human CD1d on cells [6]): 0.0068 µg/mL | IL-4 EC50 (primary CD14+ cells) (Human CD1d on cells [6]): 0.0059 µg/mL | IL-5 EC50 (primary CD14+ cells) (Human CD1d on cells [6]): 0.0062 µg/mL | IL-13 EC50 (primary CD14+ cells) (Human CD1d on cells [6]): 0.0121 µg/mL | NKT IL-4 EC50 (moDC) (Human CD1d on cells [7]): 0.00763 µg/mL and 0.00655 µg/mL | NKT IL-13 EC50 (moDC) (Human CD1d on cells [7]): 0.0227 µg/mL and 0.0196 µg/mL | NKT IFN-γ EC50 (THP-1) (Human CD1d on cells [8]): 0.00375 µg/mL | NKT IFN-γ EC50 (moDC) (Human CD1d on cells [8]): 0.000857 µg/mL | EC50 [2]: 0.284 µg/mL | NKT IFN-γ EC50 (moDC) (Human CD1d on cells [9]): 0.0124 µg/mL | NKT IL-4 EC50 (moDC) (Human CD1d on cells [9]): 0.00198 µg/mL | NKT IL-5 EC50 (moDC) (Human CD1d on cells [9]): 0.00225 µg/mL | NKT IL-13 EC50 (moDC) (Human CD1d on cells [9]): 0.00236 µg/mL | IL-2 release EC50 (U-937 + NKTCR cell line) (Human CD1d on cells [10]): 0.0053 µg/mL | IFN-γ EC50 (THP-1) (Human CD1d on cells [11]): 0.0038 µg/mL | IL-4 EC50 (THP-1) (Human CD1d on cells [11]): 0.0019 µg/mL | IL-5 EC50 (THP-1) (Human CD1d on cells [11]): 0.0017 µg/mL | IL-13 EC50 (THP-1) (Human CD1d on cells [11]): 0.0025 µg/mL | NKT IFN-γ EC50 (moDC) (Human CD1d on cells [12]): 0.0394 µg/mL | NKT IL-4 EC50 (moDC) (Human CD1d on cells [12]): 0.0173 µg/mL | NKT IL-5 EC50 (moDC) (Human CD1d on cells [12]): 0.0475 µg/mL | NKT IL-13 EC50 (moDC) (Human CD1d on cells [12]): 0.0831 µg/mL | NKT TNF EC50 (moDC) (Human CD1d on cells [12]): 0.0169 µg/mL | NKT IFN-γ EC50 (THP-1) (Human CD1d on cells [13]): 0.00375 µg/mL | NKT IFN-γ EC50 (moDC) (Human CD1d on cells [13]): 0.000857 µg/mL | NKT IL-4 EC50 (THP-1) (Human CD1d on cells [13]): 0.00288 µg/mL | NKT IL-4 EC50 (moDC) (Human CD1d on cells [13]): 0.00686 µg/mL | NKT IFN-γ EC50 (THP-1) (Human CD1d on cells [14]): 0.00233 µg/mL | NKT IFN-γ EC50 (moDC) (Human CD1d on cells [14]): 0.0235 µg/mL | NKT IL-4 EC50 (THP-1) (Human CD1d on cells [14]): 0.00136 µg/mL | NKT IL-4 EC50 (moDC) (Human CD1d on cells [14]): 0.0128 µg/mL | NKT IL-13 EC50 (THP-1) (Human CD1d on cells [14]): 0.00329 µg/mL | fold potency against 51.1, IL-2 release (Human CD1d on cells [15]): ~15 fold | fold potency against antibody 42 (C24:1 βGluCer) (Human CD1d on cells [15]): ≤ 58 fold | fold potency against antibody 42 (THP-1 assay) (Human CD1d on cells [15]): ≤ 114 fold | fold potency against antibody 42 (moDC assay) (Human CD1d on cells [15]): ≤ 200 fold | fold potency against antibody 42, IL-2 release (Human CD1d on cells [15]): ~20 fold | fold potency against antibody 51.1 (C24:1 βGluCer) (Human CD1d on cells [15]): ≤ 47 fold
B1: 401.11 (antibody, V domains shown)
VH: QVQLVGSGGGLVKPGRSLRLSCAASGFTFDDYAMHWVRQAPGKGLEWVATIIWNSAIIGYADSVKGRFIVSRDNAKNSLYLQMNSLRAEDMALYYCAKDMCSSSGCPDGYFDSWGQGTLVTVSS
VL: DIQMTQSPSSVSASVGDRVTITCRASQHISSWLAWYQQKPGKAPNLLIYAASSLQSGVSSRFSGSGSGTDFTLTISSLQPEDFATYYCQQANRFPLTFGGGTKLEIKR

EC50 (read off the curve) (Human CD1d/β2M): ~0.06 µg/mL
B2: FAb 401.11.165 (Fab, V domains shown)
VH: B1 VH with Q1E, G6E, K13Q, M91T, S104G
VL: B1 VL with N45K, S59P
notes: Made by papain digest of the IgG4
